Test: yeast display, Sf9 membrane polyspecificity reagent, FACS + sequencing; frameworks hold sequencing errors
How it was run: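 Genes from sorted yeast were amplified by colony PCR, read by MiSeq 2 × 250 sequencing and filtered on CDR length. These cells carried a synthetic nanobody library in Saccharomyces cerevisiae BJ5465 and were sorted by FACS into low and high (top ~1%) gates on anti-HA and streptavidin fluorescence. Polyreactivity is labelled according to the gate of origin.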

Row | Sequence | polyreactivity (PSR sort gate)
1 | QVQRVESGVGIVQAGGSLRLSSAASGFIFSRYAMGWYRQAPGNERQLVAAIRFSGSITYYADSVKGRFTISRDNAKNTVYLQMNSLKPEDTAVYYCAAPLTFFKRVYYWGQGTQLTVSS | high polyreactivity
2 | QVQLVESGGGLVQAGGSLRLSCAASGITFYGYAMGWYRQAPGKERELVARISRGGRTYYADSVKGRFTISRDNAKNTVYLQMNSLKPEDTAVYYCAAGKYWYAGKYLYDYWGQGTQVTVSS | high polyreactivity
3 | QVQLVESGGGLVQAGGSLRLSCAASGYTFVYNAMGWYRQAPGKEREFVAAITWSGTSTRYADSVKGRFTISRDNAKYTVYLQMKSLKPEDTAVYYCAARRRSAQSGSYNHWGQGTQVTVSS | high polyreactivity
4 | QVHLVESGGGLVQAGGSLRISCAASGFIFEPYAMGWYRQAPGKERELVAAISSTGGSTYADSVKGRFTISRDNAKNTVYIQMNSLKPEDTEGYYCAAKVRISRYTYGYWGQGNQVTVSS | high polyreactivity
5 | QDQLVESGGCLVQAGGSLRLSCAASGSIFTKYAMGWYRQAPGKERELVAAIDVNGGSTRYADSVKGRFTISRDNAKNTVYLQMNSLKPEDTAVYYCAKDYTASYYPQGLYDYWGQGTQVTVSS | low polyreactivity
6 | QVQLVESGGGLVQAGGSLRLSCAASGSTFSRYAMGWYRPAPGKERELVAAISRSGGTTYYADSVKGRFTISRDNAKNTVYLQMNSLKPEDTAVYYCNARGRYEYGYWGQGTQVTVSS | high polyreactivity
7 | QVQLVESGGGLVQAGGSLRLSCAASGFTLDQYAMGWYRQAPGKERELVAVITSGGNTYYADSVKGRFTISRDNAKNTVYLQMNSLKPEDTAVYYCAKDVSDPFYDPFEYWGQGTQVTVSS | low polyreactivity
8 | QVQLVDSGGGLVQAGGSLRLSCAASGFTITRNVMGWYRQAHGKERELVAAITSGGNTNYADSVKGRFTISRDNAKNTVYLQMNSLKPEDTAVYYCATSYHRRYDYWGQGTQVTVSS | low polyreactivity
9 | QVQLQESGGGVQAGGSLRLSCAASGSISAPILMGWYRQAPGKERELVAGIGGGANTYYADSVKGRFTVSRDNAKYTVYLQMNSLKPEDTAVYYCAAGDYYWTNFGYWGQGTQVTASS | high polyreactivity
10 | QVQLVESGGGLVQAGGSLRLICAASGITFPINTKGWYRQAPGKERELVAGIDWTGGSTYYADSVKGRFTISRDNAKNTVYLQMNSLKPEDTAVYYCAAEFFREGSPRAGSKMDYWGQGTQVTVSS | low polyreactivity
11 | QVQLVESGGGLVKAGGSLRLSCADSGRTFYINAMGWYRQAPGKERELVAAISNYGSSTYYADTVKGRFTISRDNAKYTVYLLMISLKPVDSAVYYCAASYGYGGDYDYWGQGTQGTVSS | high polyreactivity
12 | QVQLVESGGGLVQAGGSLRLSCAASGSIFRLYAMGWYRQAPGKERELVATITSGGNTYADSVKGRFTISRDNAKNTVYLQMNSLKPEDTAVYYCATTVYAYSYGYEYWGQGTQVTVSS | high polyreactivity
13 | QFQLVESGGGLVQAGGSLRLSCAASGSIFGGYAMGWYRQAPGKERELVAAISYRGASTYYADSVKGRFTISRDNAKNTVYLLMNSLKPEDTAVYYCAVAARTRARFLYGYDYWGQGTQVTVSS | low polyreactivity
14 | QDQLVESGGGLVQAGCSLRLSCAASGSTFRTYAMGWYRQAPGKERDLVAAIRRGGSTKYADSVKGRFTISRDNAKYTVYLQINSLIPEDTELYYCAAVTYVPRSTNGISLYDYWGQGTQVTVSS | high polyreactivity
15 | QVQLQESGGGLVQAGGCLRLSCAASGTSFDPDYMGWYHQAPGKERELVASISLGRITYNADSVKGRFTINRDNAKNTVYLQMNSLKPEDTAVYYCAVRVETIYYYSYWGQGTQVTVSS | high polyreactivity
16 | QVQLVESGGGLVQAGGSLRLSCAASGRTLYQYAMGWYRQAPGKERELVAAITWNGGSTYYADSVKGRFTISRDNAKNTVYLQMNSLKPEDTAVYYCAADTVRPWYAYKAHDYWGQGTQVTVSS | low polyreactivity
17 | QVQLVESGGGLVQAGGSLRLSCAASGSIFKYYTMGWYRQAPGKDRELVAAISSGGSTTYADSVKGRFTISRDNAKNSVYLQMNSLKPEDTAVYCCAAGYGYPTFVERDYWGHGTQVTVSS | high polyreactivity
18 | QVQLVESGGVLVQAGGSLRLSCAASGLIFATYAMGWSRQAPGKERELVAAISSNGDRTYYADSVKGGFTISRDNAKNTVYLQMNCLKPEDTAVYYCARLYLVQSRYPEMDFWGQGTQVTVSS | high polyreactivity
19 | QVQLVESGGGLVQAGGSLRLSCSASGSIFRGYTMGLYRQAPGKERELVAGITLRGVSTYYADSVKGRFTISRDNAKNTVYVQMNSLKPEDTAVYYGAVDYGRAVQGDSITYDFNYWGQGTQVTVSS | low polyreactivity
20 | QVQLVESGGCLVQAGRSLRLRCAASARTIGSNAMGCYRQAPGKARELVDAISSRGGSTYYADSVKGRITISRDNAKNTVYLQMNSLYPEDTAVYYCDSEYYPHTTYLSDNWGQGTQETVSS | high polyreactivity
21 | QVQLVESGGGLVQAGGSLRLSCAASGRTFRRNAMGWYRQAPGKERELVASINRGGGTNYADSVKGRFTISRDNAKNTVYLQMNSLKPEDTAVYYCAAGPGTYWGYDYWGQGTQVTVSS | low polyreactivity
22 | QVQHVESGGGLVQAGGSLRLSCAASGSIFGRYAMGWYRQAPGKERELVAAIRTDGSTYYADSVKGRFTISRDNAKNTVYLQMNSLKPEDTAVYYCAAVSKFQFHYIQYADRQYGYWGQGTQVTVSS | low polyreactivity

Row | Sequence | polyreactivity (PSR sort gate)
23 | QVQLVESGGGLFQAGGSLRLSCAASGSTFPYNAMGWYRQAPGKERELVAAITWRAGRTYYADSVKGRFTISRDNAKNTVYLQMNSLKPEDTAVYSCAKSYQRGVNHYEYWGQGTQVTVSS | high polyreactivity
24 | QVQLVESGGGLVQAGGSLRLSCAASGSIFDPYAMGWYRQAPGKERELVARISRSGGSTNYADSVKGRFTISRDNAKNTVYLQMNSLKPEDTAVYYCNTPSSREMDYWGQGTQVTVSS | low polyreactivity
25 | QVQLVDSGGGLVQAGGSLRLICAASGRTIWYYAMGWYRQAPGKERELLASITRSGGSTYADSVKGRFTISRDNAKNSVYLQMYSLKPEDTAVDYCAATRPRIPVYQNNYGYWGQGTQVTVSS | high polyreactivity
26 | QVQLVESGGGLVQAGGSLRLSCAASGLIFTDYAMGWYRQAPGKDRELVATITARGGDTYYADSVKGRFTISRDNAKNTVYLQMNSLKPEDTAVYYCAAEYLSGGEAGMYYWGQGTQVTVSS | low polyreactivity
27 | QVQLVESGGGLVQAGGSLRLSCAASGRIFGPYAMGWYRQAPGKERELVAAITWSSGITYYADSVKGRFTISRDNAKNTVYLQMNSLKPEDTAVYYCAADSRLPYYRIMEYWGQGTQVTVSS | low polyreactivity
28 | QVQLVESGGGLVQAGGSLRLSCAASGSIFNRNAMGWYRQAPGKERELVATITRNGGRTYYADSVKGRFTISRDNAKNTVYLQMNSLKPEDTAVYYCNAVRQRLRPGNLFDLDYWGQGTQVTVSS | low polyreactivity
29 | QVQLVESGGGLVQAGGSLRLSCAASGFTFPYYTMGWYRQAPGKERELVAAINRGGGSTYYADSVKGRFTISRDNAKNTVYLHMNSLKPEDTAVYYCACLRCLFPGRFDYWGQSTQVTVSS | high polyreactivity
30 | QVQLVESGGGLVQAGGSLRLSCAASGSIFQRNAMGSYRQAPGKERELVAAITYSGGGTYYADSVKGRFTISRDNAKNTVYLQMNSLKPEDTAVYYCNADGPSTPWVDYGYWGQGTQVTVSS | low polyreactivity
31 | QVQLVESGGGLVQAGGSLRLSCAASGSTYPSYAMGWYRQAPGKERELVAAINSGGSTNYADSVKGRFTISRDNAKNTVYLQMNSLKPEDTAVYYCAASVYGQHAGPGRWYTFYYWGQGTQVTVSS | low polyreactivity
32 | QVQLVASGGGLLQAGGSLRLSCAASGIIFDRYTMGWYRQAPGKERELVASISDDDGSTYYADSVKGRFTISRDNAKNTVYLQMNSLTPEDTAVYYCKALSIIFDYWGQATQVTVSS | low polyreactivity
33 | QVQLVESGGGLVQAGGSLRISCAASGSTLYRNAMGWYRQAPGKERELVAAISRTGGRTYYADSVKGRCTISRDNANNTVYLQMNSLKPEETAVYYCNTLTPSYTSGTHTFYSWGQGTQVTVSS | high polyreactivity
34 | QVQLVETGGGLVQAGGSLLLSSAASGIIIRYYGMGCYGQAPGTERELVARIRWTGGSTYSADSVKGRFTISRDNAKNTVYLQMNSLKPEDTAVYYCAADIWQYSRIANYHPFDYWGQGTQVTVSS | low polyreactivity
35 | QVQLVESGGGLVQAGGSLRLSCADYGFIMLYYALVCYRQAPGKERELVAAISWTGGRTYYADSVKGRFTISRDNAKNTVYLQMNSLKPEDTAVYFCNTVKLFGRKYGYWGQGTQVTVSS | low polyreactivity
36 | QVQVVESGGGLVQAGGSLRLSCAASGLIFVYYAMGWYRQAPGKERELVAGITRGGGTNYADSVKGRFTISRDNAKNSFYLQMNSLKPEDTAVYYCAADDLPGMDYWGQGTQVTVSS | low polyreactivity
37 | QVQLVESGGCLVQAGGSLRLSCAASGRTFRYYAMGWYRQAPGKERELVAAITGGGGSTYYADSVKGRFTISRDNAKNTVYLQMNSLKPEDTAVYYCNKLRYKQWGAQYPMDYWGQGTQVTVSS | high polyreactivity
38 | QVQLVESGGGLVQAGGSLRLSCADSGSIFLWNTMGWYRQAPGKERELVAAINFSGTRTYYADSVKGRFTISRDNAKNTVYLQMNSLKPEDTAVYYCNARTSRRLDYDYWGQGTQVTVSS | high polyreactivity
39 | QVQLVESGGGLVQAGGSLRLSCAASGRIFPYYAMGWYRQAPGKERELVAAISQSGGSTNYADSVKGRFTISRDNAKNTVYLQLNSLKPEDTAVYYCNVDVSRSWAQPYTYDYWGQGTQVTVSS | low polyreactivity
40 | QVQLVESGGGLVQAGGSLRLSCAASGRTFGYYAMGWYRQAPGKERELVAAISWRGGSTYYADSVKGRFTISRDNAKNTVYLQMNSLKPEDTAVYYCHRAYVYPQGPYPYDYWGQGTQVTVSS | high polyreactivity
41 | QVQLVESGGGLVQAGGRLRLSCAASGSIFGVYAMGWYRQSPGKERELVATISRSGAITYYADSVKGRFTISRDNAKNTVYLQMNSLKPEDTAVYYCAADFFSRDWGQGTQVTVSS | low polyreactivity
42 | QVQLVESGGGLVQAGGSLRLSCAASGCTFDYNAMGWYRQAPGKEREFVAAIDYSSGSTYYADSVKGRFTISRDNAKNTVYLQMNCLKPEDTAVYYCNAPIAVGSGLFDYWGQGTQVTVSS | high polyreactivity
43 | QVQLVESGGGLVQAGGSLSLSCAASGSIFGSYAMGWYRKAPGKERELVAAITGSGVSTYYADSVKGRFTISRDNAKYTVYLQMNSLKPEDTAVYYCAAKRYYARSAYGSYFIVGYWGQGTQVTVSS | high polyreactivity
